± gives the uncertainty stated by the source.
Experiment: abundance fitness (aPCA) (normalised: wild type 0, dead -1); higher = more abundant; growth selection in yeast, the domain comes from the species named
Conditions: Bacillus caldolyticus
Substance Cold shock protein CspB V20G, P41016 has an abundance fitness of 0.004 ± 0.039.

Same assay, conditions: Homo sapiens
“Scaffold attachment factor B1 D38Q, Q15424” gave an abundance fitness of -0.107 ± 0.069. “Scaffold attachment factor B1 G69M, Q15424” showed an abundance fitness of -0.463 ± 0.096. “Scaffold attachment factor B1 R29M, Q15424” showed an abundance fitness of 0.03 ± 0.077. For “Scaffold attachment factor B1 D73S, Q15424”, the abundance fitness was -0.243 ± 0.061. “Scaffold attachment factor B1 D67T, Q15424” showed an abundance fitness of -0.237 ± 0.071. For “Scaffold attachment factor B1 R35K, Q15424”, the abundance fitness was -0.217 ± 0.083. Substance “Scaffold attachment factor B1 N71D, Q15424” has an abundance fitness of -0.247 ± 0.1. Work on “Scaffold attachment factor B1 D67F, Q15424” yielded an abundance fitness of -0.293 ± 0.082. Substance “Scaffold attachment factor B1 K62N, Q15424” has an abundance fitness of -0.231 ± 0.096. Substance “Scaffold attachment factor B1 L61W, Q15424” has an abundance fitness of -0.649 ± 0.052. Substance “Scaffold attachment factor B1 D38S, Q15424” has an abundance fitness of -0.446 ± 0.059. Substance “Scaffold attachment factor B1 R44F, Q15424” has an abundance fitness of -0.27 ± 0.081. For “Scaffold attachment factor B1 K54Q, Q15424”, the abundance fitness was -0.115 ± 0.066. Substance “Scaffold attachment factor B1 A41Y, Q15424” has an abundance fitness of -0.176 ± 0.069. Work on “Scaffold attachment factor B1 P72D, Q15424” yielded an abundance fitness of -0.407 ± 0.1. Substance “Scaffold attachment factor B1 A41D, Q15424” has an abundance fitness of -0.204 ± 0.064. Substance “Scaffold attachment factor B1 S50N, Q15424” has an abundance fitness of -0.316 ± 0.091. In the case of “Scaffold attachment factor B1 E68W, Q15424”, the abundance fitness is reported as -0.836 ± 0.07. “Scaffold attachment factor B1 E59I, Q15424” gave an abundance fitness of -0.071 ± 0.067. “Scaffold attachment factor B1 E68T, Q15424” gave an abundance fitness of -0.314 ± 0.054. Substance “Scaffold attachment factor B1 D33Q, Q15424” has an abundance fitness of -0.192 ± 0.069. Work on “Scaffold attachment factor B1 I37G, Q15424” yielded an abundance fitness of -0.028 ± 0.05. In the case of “Scaffold attachment factor B1 N71H, Q15424”, the abundance fitness is reported as -0.309 ± 0.1. “Scaffold attachment factor B1 E42N, Q15424” showed an abundance fitness of -0.736 ± 0.11. For “Scaffold attachment factor B1 I77R, Q15424”, the abundance fitness was -0.156 ± 0.055. With “Scaffold attachment factor B1 T78D, Q15424” the abundance fitness was -0.271 ± 0.086. With “Scaffold attachment factor B1 S79F, Q15424” the abundance fitness was -0.239 ± 0.08. Work on “Scaffold attachment factor B1 G52R, Q15424” yielded an abundance fitness of -1.18 ± 0.054. Substance “Scaffold attachment factor B1 T28E, Q15424” has an abundance fitness of -0.261 ± 0.08. Work on “Scaffold attachment factor B1 T26K, Q15424” yielded an abundance fitness of -0.31 ± 0.14. In the case of “Scaffold attachment factor B1 N47S, Q15424”, the abundance fitness is reported as -0.236 ± 0.07. For “Scaffold attachment factor B1 T78C, Q15424”, the abundance fitness was -0.267 ± 0.079. In the case of “Scaffold attachment factor B1 L61N, Q15424”, the abundance fitness is reported as -0.716 ± 0.13. “Scaffold attachment factor B1 T28R, Q15424” gave an abundance fitness of -0.301 ± 0.055. Substance “Scaffold attachment factor B1 L39C, Q15424” has an abundance fitness of -0.745 ± 0.074. With “Scaffold attachment factor B1 G69E, Q15424” the abundance fitness was -0.552 ± 0.086. For “Scaffold attachment factor B1 R60Q, Q15424”, the abundance fitness was -0.445 ± 0.081. “Scaffold attachment factor B1 L31G, Q15424” gave an abundance fitness of -0.536 ± 0.06. Work on “Scaffold attachment factor B1 E66L, Q15424” yielded an abundance fitness of -0.133 ± 0.051. With “Scaffold attachment factor B1 L61V, Q15424” the abundance fitness was -0.311 ± 0.065. Substance “Scaffold attachment factor B1 E74Q, Q15424” has an abundance fitness of -0.32 ± 0.088. In the case of “Scaffold attachment factor B1 N47M, Q15424”, the abundance fitness is reported as -0.224 ± 0.073. “Scaffold attachment factor B1 M58N, Q15424” gave an abundance fitness of -0.37 ± 0.097. “Scaffold attachment factor B1 A64L, Q15424” gave an abundance fitness of -0.146 ± 0.052. With “Scaffold attachment factor B1 I65F, Q15424” the abundance fitness was -0.466 ± 0.099. “Scaffold attachment factor B1 S79K, Q15424” gave an abundance fitness of -0.229 ± 0.1. “Scaffold attachment factor B1 E66S, Q15424” showed an abundance fitness of -0.164 ± 0.056. Work on “Scaffold attachment factor B1 I65E, Q15424” yielded an abundance fitness of -0.497 ± 0.085. With “Scaffold attachment factor B1 S51I, Q15424” the abundance fitness was -0.153 ± 0.089. With “Scaffold attachment factor B1 K63V, Q15424” the abundance fitness was -0.185 ± 0.056. For “Scaffold attachment factor B1 G52K, Q15424”, the abundance fitness was -1.35 ± 0.18. With “Scaffold attachment factor B1 E42K, Q15424” the abundance fitness was -0.852 ± 0.1. With “Scaffold attachment factor B1 V36D, Q15424” the abundance fitness was -0.125 ± 0.068. “Scaffold attachment factor B1 D73M, Q15424” gave an abundance fitness of -0.468 ± 0.1. “Scaffold attachment factor B1 G70T, Q15424” showed an abundance fitness of -0.408 ± 0.092. “Scaffold attachment factor B1 S79E, Q15424” showed an abundance fitness of -0.288 ± 0.097. “Scaffold attachment factor B1 S79L, Q15424” gave an abundance fitness of -0.118 ± 0.068. For “Scaffold attachment factor B1 K54W, Q15424”, the abundance fitness was -0.255 ± 0.056. For “Scaffold attachment factor B1 P72C, Q15424”, the abundance fitness was -0.103 ± 0.061. For “Scaffold attachment factor B1 S32G, Q15424”, the abundance fitness was -0.235 ± 0.064. Substance “Scaffold attachment factor B1 D38T, Q15424” has an abundance fitness of -0.307 ± 0.072. Substance “Scaffold attachment factor B1 N53M, Q15424” has an abundance fitness of -0.376 ± 0.063. Substance “Scaffold attachment factor B1 R60C, Q15424” has an abundance fitness of -0.676 ± 0.1. For “Scaffold attachment factor B1 D33E, Q15424”, the abundance fitness was -0.209 ± 0.078. For “Scaffold attachment factor B1 D73L, Q15424”, the abundance fitness was -0.245 ± 0.059. Substance “Scaffold attachment factor B1 D49I, Q15424” has an abundance fitness of -0.514 ± 0.1. “Scaffold attachment factor B1 G69H, Q15424” gave an abundance fitness of -0.292 ± 0.11. Substance “Scaffold attachment factor B1 R35A, Q15424” has an abundance fitness of -0.112 ± 0.059. “Scaffold attachment factor B1 V36K, Q15424” gave an abundance fitness of -0.19 ± 0.078. “Scaffold attachment factor B1 T78H, Q15424” gave an abundance fitness of -0.427 ± 0.096. Substance “Scaffold attachment factor B1 R40Y, Q15424” has an abundance fitness of -0.549 ± 0.077. In the case of “Scaffold attachment factor B1 G70D, Q15424”, the abundance fitness is reported as -0.354 ± 0.097. For “Scaffold attachment factor B1 R60E, Q15424”, the abundance fitness was -0.551 ± 0.089. “Scaffold attachment factor B1 K62I, Q15424” gave an abundance fitness of -0.336 ± 0.078. “Scaffold attachment factor B1 E68M, Q15424” showed an abundance fitness of -0.461 ± 0.054. For “Scaffold attachment factor B1 E66W, Q15424”, the abundance fitness was -0.43 ± 0.059. Work on “Scaffold attachment factor B1 R44A, Q15424” yielded an abundance fitness of -0.029 ± 0.061. “Scaffold attachment factor B1 R29C, Q15424” showed an abundance fitness of -0.107 ± 0.073.

— the Human Domainome abundance scans (Beltran et al. 2025)
